Results from PMC9391379, “Ferritin-mediated iron detoxification promotes hypothermia survival in Caenorhabditis elegans and murine neurons” (Nature Communications, 2022).

Target: the molecule itself
Assay: native gel or EMSA; recombinant FTN variants (2 µg) resolved on a 4–16% gradient NativePAGE Bis-Tris gel, Coomassie Blue stained; NativeMark standard for the size of complexes; self-assembly into high molecular weight complexes

B1: C. elegans ferritin FTN-2, recombinant, untagged, wild type (natural protein, UniProt Q9TYS3 1-170, looked up)
chain: MSLARQNYHSEVEAAVNKQINIELYASYVYLSMSFYFDRDDVALPNIAKFFKEQSDEEREHATELMRVQNLRGGRVVLQDIQKPENDEWGTALKAFEAALALEKFNNESLLKLHSTAGNHNDAHLTDFIEEKYLDEQVKSINEFARMVANLKRVGPGVGEYVFDKEHFSD
notes: FTN-2, C. elegans ferritin; ORF amplified from C. elegans cDNA and cloned between NcoI and NotI of pET28a; expressed without a tag; also called FTN-2 wt; source: E. coli BL21-CodonPlus (DE3)-RIPL, purified (heat step, acid precipitation, cation exchange)
  binding result: binds

B2: C. elegans ferritin FTN-2 E58K/H61G (FeOx-mut), recombinant, untagged (natural protein, UniProt Q9TYS3 1-170, looked up)
chain: MSLARQNYHSEVEAAVNKQINIELYASYVYLSMSFYFDRDDVALPNIAKFFKEQSDEKREGATELMRVQNLRGGRVVLQDIQKPENDEWGTALKAFEAALALEKFNNESLLKLHSTAGNHNDAHLTDFIEEKYLDEQVKSINEFARMVANLKRVGPGVGEYVFDKEHFSD
notes: FTN-2, C. elegans ferritin; ORF in pET28a with the E58K/H61G double mutation made by site-directed mutagenesis; expressed without a tag; also called FTN-2 FeOx-mut; E58K/H61G-mutated FTN-2; source: E. coli BL21-CodonPlus (DE3)-RIPL, purified (heat step, acid precipitation, cation exchange)
  binding result: binds

B3: C. elegans ferritin FTN-1, recombinant, untagged, wild type (natural protein, UniProt O16453 1-170, looked up)
chain: MSLARQNYHDEVEAAVNKQINVELYASYVYLSMSAHFDRDDIALRNIAKFFKEQSDEERGHATELMRIQAVRGGRVAMQNIQKPEKDEWGTVLEAFEAALALERANNASLLKLHGIAEQRNDAHLTNYIQEKYLEEQVHSINEFARYIANIKRAGPGLGEYLFDKEEFSD
notes: FTN-1, C. elegans ferritin; ORF amplified from C. elegans cDNA and cloned between NcoI and NotI of pET28a; expressed without a tag; also called FTN-1 wt; source: E. coli BL21-CodonPlus (DE3)-RIPL, purified (heat step, acid precipitation, cation exchange)
  binding result: binds

B4: C. elegans ferritin FTN-1 E58K/H61G (FeOx-mut), recombinant, untagged (natural protein, UniProt O16453 1-170, looked up)
chain: MSLARQNYHDEVEAAVNKQINVELYASYVYLSMSAHFDRDDIALRNIAKFFKEQSDEKRGGATELMRIQAVRGGRVAMQNIQKPEKDEWGTVLEAFEAALALERANNASLLKLHGIAEQRNDAHLTNYIQEKYLEEQVHSINEFARYIANIKRAGPGLGEYLFDKEEFSD
notes: FTN-1, C. elegans ferritin; ORF in pET28a with the E58K/H61G double mutation made by site-directed mutagenesis; expressed without a tag; also called FTN-1 FeOx-mut; E58K/H61G-mutated FTN-1; source: E. coli BL21-CodonPlus (DE3)-RIPL, purified (heat step, acid precipitation, cation exchange)
  binding result: binds
